From FireProtDB (doi:10.1002/pro.100)

B1: Prolactin, P01236 (parent)
chain: MNIKGSPWKGSLLLLLVSNLLLCQSVAPLPICPGGAARCQVTLRDLFDRAVVLSHYIHNLSSEMFSEFDKRYTHGRGFITKAINSCHTSSLATPEDKEQAQQMNQKDFLSLIVSILRSWNEPLYHLVTEVRGMQEAPEAILSKAVEIEEQTKRLLEGMELIVSQVHPETKENEIYPVWSGLPSLQMADEESRLSAYYNLLHCLRRDSHKIDNYLKLLKCRIIHNNNC

Variants of: B1
Conditions: Homo sapiens, 25 °C, Urea, Fluorescence, Potassium phosphate 25 mM, NaCl 25 mM, reversible: Yes, structure 2Q98, whole UniProt chain shown

| Variant | ddG of mutation (higher = less stable) (pH 5.8) | denaturant m value (pH 5.8) | denaturant midpoint (higher = more stable) (pH 5.8) | unfolding free energy (pH 5.8) | ddG of mutation (higher = less stable) (pH 7.8) | denaturant m value (pH 7.8) | denaturant midpoint (higher = more stable) (pH 7.8) | unfolding free energy (pH 7.8) |
| --- | --- | --- | --- | --- | --- | --- | --- | --- |
| H58A | -3.1 kcal/mol | 1.2 kcal/mol/M | 6.18 M | 7.4 kcal/mol | -2.05 kcal/mol | 1.51 kcal/mol/M | 6.79 M | 10.2 kcal/mol |
| H223A | 0.03 kcal/mol | 0.81 kcal/mol/M | 5.29 M | 4.27 kcal/mol | -0.12 kcal/mol | 1.42 kcal/mol/M | 5.85 M | 8.32 kcal/mol |
| H166A | -2.04 kcal/mol | 1.08 kcal/mol/M | 5.87 M | 6.34 kcal/mol | -0.58 kcal/mol | 1.38 kcal/mol/M | 6.38 M | 8.78 kcal/mol |
| H55A H208A | -2.06 kcal/mol | 1.05 kcal/mol/M | 6.08 M | 6.36 kcal/mol | -2.57 kcal/mol | 1.62 kcal/mol/M | 6.64 M | 10.8 kcal/mol |
| H87A | -2.26 kcal/mol | 1.13 kcal/mol/M | 5.81 M | 6.56 kcal/mol | 0.02 kcal/mol | 1.35 kcal/mol/M | 6.08 M | 8.18 kcal/mol |
| H125A | -1.07 kcal/mol | 0.94 kcal/mol/M | 5.72 M | 5.37 kcal/mol | -0.33 kcal/mol | 1.4 kcal/mol/M | 6.1 M | 8.53 kcal/mol |
| H58A H208A | -3.06 kcal/mol | 1.17 kcal/mol/M | 6.31 M | 7.36 kcal/mol |  |  |  |  |
| H58A H201A H208A | -3.98 kcal/mol | 1.22 kcal/mol/M | 6.81 M | 8.28 kcal/mol | -0.87 kcal/mol | 1.31 kcal/mol/M | 6.94 M | 9.07 kcal/mol |
| H58A H201A | -3.7 kcal/mol | 1.19 kcal/mol/M | 6.7 M | 8 kcal/mol | -1.53 kcal/mol | 1.49 kcal/mol/M | 6.53 M | 9.73 kcal/mol |
| H55A | -0.09 kcal/mol | 0.77 kcal/mol/M | 5.71 M | 4.39 kcal/mol |  |  |  |  |
| H55A H58A |  |  |  |  | -1.42 kcal/mol | 1.39 kcal/mol/M | 6.94 M | 9.62 kcal/mol |
| H74A | 0.11 kcal/mol | 0.81 kcal/mol/M | 5.14 M | 4.19 kcal/mol | -1.55 kcal/mol | 1.58 kcal/mol/M | 6.19 M | 9.75 kcal/mol |
| H55A H58A H208A | -3.41 kcal/mol | 1.16 kcal/mol/M | 6.67 M | 7.71 kcal/mol | -3.11 kcal/mol | 1.59 kcal/mol/M | 7.1 M | 11.3 kcal/mol |
| H201A | -0.24 kcal/mol | 0.76 kcal/mol/M | 5.98 M | 4.54 kcal/mol | 0.35 kcal/mol | 1.26 kcal/mol/M | 6.22 M | 7.85 kcal/mol |
| H208A | -1.39 kcal/mol | 0.96 kcal/mol/M | 5.94 M | 5.69 kcal/mol | 0.04 kcal/mol | 1.28 kcal/mol/M | 6.36 M | 8.16 kcal/mol |
| H201A H208A | -1.71 kcal/mol | 0.93 kcal/mol/M | 6.49 M | 6.01 kcal/mol | 0.41 kcal/mol | 1.17 kcal/mol/M | 6.66 M | 7.79 kcal/mol |
